We go through 1 molecule from paper PMC12675543 (Nature Communications, 2025).

Usually Kd stands for a measure of binding affinity in units of concentration. The low end stands for tighter binding, the high end for weaker binding.

What all share (assay): SPR; biotinylated p62 constructs or His-MBP immobilised on streptavidin sensor chips (520-700 RU); VHHp62 injected in serial dilution; 50 mM Tris, 150 mM NaCl, 1 mM TCEP, 0.05% Tween-20, pH 7.4, 25 °C; kinetic 1:1 model
Common to all, as to conditions: both partners purified

The target of assay [1] is T1, His-MBP-p62(85-440)-Avi (Homo sapiens, UniProt Q13501, biotinylated).
T1 construct: also called immunogen; p62 lacking essential parts of the PB1 domain; source: recombinant; not shown: His, N-terminal, kept; MBP, N-terminal, kept; Avi, C-terminal, kept

The target of assay [2] is T2, p62(387-446)-Avi (Homo sapiens, UniProt Q13501, biotinylated).
T2 construct: p62 (SQSTM1), human, UBA domain, printed as residues 387-446; SPR construct; also called p62UBA; p62 ubiquitin associated domain; source: E. coli BL21 (DE3), purified (IMAC, 3C cleavage, SEC); not shown: His-MBP, N-terminal, cleaved; Avi, C-terminal, kept

Assay [3] concerns the target T3, p62(122-181)-Avi (Homo sapiens, UniProt Q13501, biotinylated).
T3 construct: p62 (SQSTM1), human, ZZ domain, residues 122-181; also called p62ZZ; p62 ZZ domain; source: E. coli BL21 (DE3), purified (IMAC, 3C cleavage, SEC); not shown: His-MBP, N-terminal, cleaved; Avi, C-terminal, kept

Assay [4] has as its target T4, His-MBP-avi (Escherichia coli K12 (assumed), UniProt P0AEX9 = MBP, biotinylated).
T4 construct: Control surface protein in SPR; also called His-MBP tag; not shown: His, N-terminal, kept; Avi, C-terminal, kept

B1: VHHp62-His (6C10) (VHH)
VHH: EVQLVESGGGLVQPGGSLRLSCVASGFTFSNYWMYWVRQAPGKGLEWVSTINTGSGAAYYTSSVKGRFTISRDNAKNTLYLQMNSLKSEDTAVYYCATDLRGAQRGQGTQVTVSS
notes: anti-p62 VHH from immunised llamas, phage display clone 6C10; the AlphaFold2 model of VHHp62 had 121 residues; also called VHH 6C10; p62 single-domain antibody; source: Pichia pastoris (Komagataella phaffii), secreted, purified (IMAC, desalting); not shown: His, C-terminal, kept
In the case of B1, the Kd in assay [1] amounted to 11 nM; in assay [2], 36 nM. The binding result in assay [3] and in assay [4] was “no binding” throughout.
